According to paper PMC7755911 (2020):
Residue numbers refer to the chain shown, from its start.

B1: NIH-CoVnb-113 (VHH)
VHH: DVQLQESGGGLVQPGGSLRLSCAASGLTLDYYAIGWFRQAPGKEREGVSCISSSDGSTYYADSVKGRFTTSRDNAKNTVYLQMNSLKPEDTAVYYCAAVPSTYYSGTYYYTCHPGGMDYWGKGTLVTVSS
B2: NIH-CoVnb-109 (VHH)
VHH: B1 VHH with P14S, L27F, S52T, S53N, A98S, V99F, T107S, L125Q
B3: NIH-CoVnb-108 (VHH)
VHH: B1 VHH with L27F, S53N, D55G, T107S, L125Q
B4: NIH-CoVnb-103 (VHH)
VHH: DVQLQESGGGLVQPGGSLRLSCAASGLTLDYYTIGWFRQAPGKEREGVSCISSSDDSTYYADSVKGRFTISRDNAKNTVYLQMNSLKPEDTAVYYCATAPGTYYKGSYYPMCHYYGMDYWGKGTQVTVSS

target: T1, Biotinylated SARS-CoV-2 S protein RBD with a C-terminal AviTag (SARS-CoV-2, UniProt P0DTC2 319-541); assay: BLI

Binder | Kd [nM]
B1 | 8.19
B2 | 58.5
B3 | 26.6
B4 | 9.43

target: T1, Biotinylated SARS-CoV-2 S protein RBD …; assay: BLI; remark: another data set of the same source

Binder | koff [s⁻¹]
B1 | 0.000804
B2 | 0.00188
B3 | 0.00109
B4 | 0.00286
